Among the data in patent US12201692B2, “Targeted protease compositions and uses related thereto” (Emory University, priority 2013, dated 2025) are uPAR-targeting efficiency and solubility values, retold here.

One data set concerns the target uPAR (Homo sapiens, UniProt Q03405). Description: uPAR-targeting efficiency of ATF fragment. Conditions: in comparison with the full length ATF (135 aa).
A short description of data set [1]: Solubility of recombinant ATF fragments. Particulars: compared to ATF 135 aa. Type of data set: physicochemical. From the text:
The amino terminal fragment (ATF, 135 aa) of uPA was used as a target ligand to develop uPAR-targeted theranostic IONPs. The yield and purity of recombinant ATF from bacterial cultures have been less than optimal due to the formation of undesirable aggregates. By removing of the hydrophobic amino acids that promote the formation of aggregates, uPAR targeting ligands (39 and 68 aa) with receptor-binding peptide regions were engineered as improvements.
In comparison with the full length ATF (135 aa), this short uPAR targeted ligand is an improved candidate to engineer the fusion targeting ligand ATF68-MMP14 with dual uPAR targeting and MMP14 protease activity.

“Also recorded” adds a separate entry of the source.

uPAR, sequence (Q03405 23-305): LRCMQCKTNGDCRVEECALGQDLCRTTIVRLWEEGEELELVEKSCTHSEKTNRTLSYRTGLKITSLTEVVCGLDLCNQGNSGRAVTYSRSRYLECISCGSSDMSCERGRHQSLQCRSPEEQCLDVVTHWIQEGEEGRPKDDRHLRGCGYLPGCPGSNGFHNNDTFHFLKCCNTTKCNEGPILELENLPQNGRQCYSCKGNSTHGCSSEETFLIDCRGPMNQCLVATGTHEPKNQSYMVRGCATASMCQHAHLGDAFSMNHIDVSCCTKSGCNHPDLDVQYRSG

B1: ATF68: uPA-ATF with only the growth factor domain, 68 aa uPAR targeting ligand (SEQ ID NO:2) (protein)
chain: SNELHQVPSNCDCLNGGTCVSNKYFSNIHWCNCPKKFGGQHCEIDKSKTCYEGNGHFYRGKASTDTMG
Turning to B1, the uPAR-targeting efficiency entry with uPAR was “higher uPAR-targeting efficiency”. For the same molecule, the solubility entry in data set [1] is “better solubility; also recorded: improved physiological solubility”.
